The record followed here is patent US20170152308A1 (Biogen, published 2017).

One assay concerns the target T1, BSA (bovine, UniProt P02769).
T1 construct: control coating in the EC50 ELISA; also called bovine serum albumin (Sigma, Buchs, Switzerland)
In words: direct ELISA, BSA coated at 5 ug/ml as control, OD 450. The protocol: (§1) To determine the half maximal effective concentration (EC₅₀) of the human-derived TDP-43-specific antibodies for human TDP-43 and to evaluate target-specificity, 96 well microplates (Corning) were coated with recombinant full length TDP-43 (Biogen Idec, USA), Escherichia coli extract and BSA (Sigma, Buchs, Switzerland), diluted to a concentration of 5 μg/ml in carbonate ELISA coating buffer (pH 9.6) overnight at 4° C. […] Non-specific binding sites were blocked for 1 hr. at room temperature with PBS containing 2% BSA (Sigma, Buchs, Switzerland). Human TDP-43-specific antibodies were diluted to the indicated concentrations and incubated 1 hr. at room temperature. Binding was determined using a donkey anti-human IgGγ-specific secondary antibody conjugated with HRP (Jackson ImmunoResearch, USA), followed by measurement of HRP activity in a standard colorimetric assay. EC₅₀ values were estimated by a non-linear regression using GraphPad Prism software (San Diego, USA).
The half maximal effective concentration (EC₅₀) of the human-derived TDP-43-specific antibodies for human TDP-43 and their target target-specificity was determined substantially as described in Example 2 above. […]

Assay [1] has as its target T2, recombinant full-length His-tagged human TDP-43 (2-414) (human, UniProt Q13148 2-414).
T2 construct: Amino terminal His tag, made in E. coli, purified in 8 M urea; also called full length TDP-43; full-length TDP-43
Description: direct ELISA, coated antigen. The procedure:
as §1, with “The” for “To determine the”, “their target target-specificity was determined substantially as described in Example 2 above. Briefly,” for “to evaluate target-specificity,”
A general note: ELISA stands for enzyme-linked immunosorbent assay.

For assay [2], the target named is T3, His-huTDP-43 domain III (amino acid residues 183-273) (human).
T3 construct: Amino terminal His-tagged fragment, E. coli
T3 chain: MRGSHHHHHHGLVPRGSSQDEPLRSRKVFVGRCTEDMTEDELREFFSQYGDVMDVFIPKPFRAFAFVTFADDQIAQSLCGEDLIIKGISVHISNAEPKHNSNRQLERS
Description: Western blot, 300 ng recombinant protein per lane, primary antibody 10 nM. The protocol: (§2) Non-specific binding sites were blocked for 1 hr. at room temperature with PBST containing 2% BSA (Sigma, Buchs, Switzerland). Blots were incubated overnight with primary antibodies (10 nM) followed by either a donkey anti-human IgGγ-specific secondary antibody conjugated with HRP (Jackson ImmunoResearch, USA) or a goat-anti mouse IgG (H+L)-specific secondary antibody conjugated with HRP (Jackson ImmunoResearch, USA). Blots were developed using ECL and ImageQuant 350 detection (GE Healthcare, Otelfingen, Switzerland).
For orientation: A western blot detects proteins with antibodies after separation by electrophoresis.

Assay [3] concerns the target T4, His-huTDP-43 domain II (amino acid residues 99-204) (human).
T4 construct: Amino terminal His-tagged fragment, E. coli
T4 chain: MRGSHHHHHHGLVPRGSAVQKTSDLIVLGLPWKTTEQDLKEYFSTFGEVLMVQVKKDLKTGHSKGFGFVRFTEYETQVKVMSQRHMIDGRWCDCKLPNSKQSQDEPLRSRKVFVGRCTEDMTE
The description is as above. The protocol: as §2

In assay [4] the target is T5, His-huTDP-43 domain I (amino acid residues 2-106) (human).
T5 construct: Amino terminal His-tagged fragment, E. coli; also called N-terminal domain
T5 chain: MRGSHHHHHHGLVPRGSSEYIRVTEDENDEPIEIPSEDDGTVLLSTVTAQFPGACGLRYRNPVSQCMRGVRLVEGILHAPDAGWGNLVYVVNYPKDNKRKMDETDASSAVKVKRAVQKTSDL
The assay is described as above. The procedure:
as §2

For assay [5], the target named is T6, 6xHis-SUMO-TDP-43 (1-414), properly folded full length (human, UniProt Q13148 1-414).
T6 construct: Purified with KSCN and arginine, monomeric; captured on the plate by an anti-6xHis antibody; also called folded full-length TDP-43; 6xHis/SUMO tagged full length TDP-43; not shown: N-terminal 6xHis and SUMO tags from a modified pET19-b vector
In words: capture ELISA, antigen held by anti-6xHis antibody. The procedure:
(§3) Non-specific binding sites were blocked for 1 hr at RT with PBS containing 1% BSA (Sigma) and 0.05% Tween-20 (Fisher Scientific). 6×His-SUMO-TDP43 proteins at a concentration of 1.7 μM were allowed to bind to antibody-coated plates for 1 hr at RT in PBS buffer containing 1% BSA, 300 mM arginine and 0.1% PEG 5000, pH 7.5. Plates were incubated for 1 hr at RT with human antibodies of present invention, titrated in a three-fold dilution series, followed by HRP conjugated anti-human IgG Fc γ (Jackson ImmunoResearch) in PBST containing 1% BSA. HRP activity was measured in a standard colorimetric assay. EC₅₀ values were calculated using a four-parameter logistic curve fit on Softmax pro software (Molecular Devices).
(§4) We measured the binding affinity of the human-derived TDP-43 specific antibodies provided herein to properly folded 6×His/SUMO tagged TDP-43 using a capture ELISA in which native TDP-43 was immobilized without direct adsorption on the surface of the ELISA plate. This was achieved by immobilizing an anti 6×His antibody which then captured native TDP-43. […] After this immobilization step, binding by human antibodies was tested in regular buffers without interference of TDP-43 aggregation.

Assay [6] addresses T7, 6xHis-SUMO-TDP-43 (220-414) (human, UniProt Q13148 220-414).
T7 construct: Captured on the plate by an anti-6xHis antibody; also called 6xHis/SUMO tagged truncated TDP-43; not shown: N-terminal 6xHis and SUMO tags from a modified pET19-b vector
Description: capture ELISA, antigen held by anti-6xHis antibody. The protocol: as §3, §4

For assay [7], the target named is T2, recombinant full-length His-tagged …. Description: direct ELISA, coated antigen. The procedure: as §1, with “The” for “To determine the”, “their target target-specificity was determined substantially as described in Example 2 above. Briefly,” for “to evaluate target-specificity,”
This is another data set of the same source.

In assay [8] the target is T8, TDP-43 in human FTLD-U (and ALS) patient tissue sections (human, UniProt Q13148 1-414, limits assumed).
T8 construct: Target of immunohistochemistry; the forms present are not defined; also called pathologic TDP-43; cytoplasmic, nuclear, neuritic TDP-43 in FTLD-U case tissue
Description: immunohistochemistry, FTLD-U case hippocampus.

Assay [9] has as its target T3, His-huTDP-43 domain III (amino acid …). Description: direct ELISA, TDP-43 fragments coated at 6.6 ug/ml, OD 450. The procedure: (§5) Non-specific binding sites were blocked for 1 hr. at room temperature with PBST containing 2% BSA (Sigma, Buchs, Switzerland). Antibodies were incubated 1 hr. at room temperature. Binding was determined using either a donkey anti-human IgGγ-specific antibody conjugated with HRP (Jackson ImmunoResearch, USA) or a goat-anti mouse IgG (H+L)-specific secondary antibody conjugated with HRP (Jackson ImmunoResearch, USA)., followed by measurement of HRP activity in a standard colorimetric assay.

The target in assay [10] is T4, His-huTDP-43 domain II (amino acid …). The description is as above. The protocol: as §5
Assay [11] addresses T5, His-huTDP-43 domain I (amino acid …). The assay is described as above. The protocol: as §5
In assay [12] the target is T4, His-huTDP-43 domain II (amino acid …). Description: direct ELISA, coated antigen.
The target of assay [13] is T9, His-huTDP-43 domain IV (amino acid residues 258-414) (human, UniProt Q13148 258-414).
T9 construct: Amino terminal His-tagged fragment, E. coli, solubilized in 8 M urea; also called Glycine-rich domain
In words: direct ELISA, TDP-43 fragments coated at 6.6 ug/ml, OD 450. The protocol: as §5

Read-outs that look alike come from different tables or passages of the source. Some results are limits rather than exact numbers.

T7 sequence (Q13148 220-414): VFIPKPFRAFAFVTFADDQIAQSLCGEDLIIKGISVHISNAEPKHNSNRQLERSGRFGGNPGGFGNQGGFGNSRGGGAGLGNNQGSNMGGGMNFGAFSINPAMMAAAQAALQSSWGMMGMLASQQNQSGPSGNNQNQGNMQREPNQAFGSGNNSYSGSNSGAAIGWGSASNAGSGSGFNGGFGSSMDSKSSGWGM
T6 sequence (Q13148 whole entry): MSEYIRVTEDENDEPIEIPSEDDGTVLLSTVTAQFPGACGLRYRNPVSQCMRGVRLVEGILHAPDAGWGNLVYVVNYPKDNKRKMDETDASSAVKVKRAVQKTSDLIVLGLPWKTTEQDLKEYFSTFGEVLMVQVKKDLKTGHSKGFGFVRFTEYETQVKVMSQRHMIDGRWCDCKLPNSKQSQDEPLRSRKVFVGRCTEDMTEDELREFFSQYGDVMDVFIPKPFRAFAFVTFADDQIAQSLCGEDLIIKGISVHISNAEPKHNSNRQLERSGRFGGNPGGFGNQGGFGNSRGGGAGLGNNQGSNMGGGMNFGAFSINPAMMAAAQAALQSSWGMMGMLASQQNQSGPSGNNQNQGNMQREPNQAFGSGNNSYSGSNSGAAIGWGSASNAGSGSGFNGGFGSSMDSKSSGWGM
T1 sequence (P02769 25-607 limits assumed): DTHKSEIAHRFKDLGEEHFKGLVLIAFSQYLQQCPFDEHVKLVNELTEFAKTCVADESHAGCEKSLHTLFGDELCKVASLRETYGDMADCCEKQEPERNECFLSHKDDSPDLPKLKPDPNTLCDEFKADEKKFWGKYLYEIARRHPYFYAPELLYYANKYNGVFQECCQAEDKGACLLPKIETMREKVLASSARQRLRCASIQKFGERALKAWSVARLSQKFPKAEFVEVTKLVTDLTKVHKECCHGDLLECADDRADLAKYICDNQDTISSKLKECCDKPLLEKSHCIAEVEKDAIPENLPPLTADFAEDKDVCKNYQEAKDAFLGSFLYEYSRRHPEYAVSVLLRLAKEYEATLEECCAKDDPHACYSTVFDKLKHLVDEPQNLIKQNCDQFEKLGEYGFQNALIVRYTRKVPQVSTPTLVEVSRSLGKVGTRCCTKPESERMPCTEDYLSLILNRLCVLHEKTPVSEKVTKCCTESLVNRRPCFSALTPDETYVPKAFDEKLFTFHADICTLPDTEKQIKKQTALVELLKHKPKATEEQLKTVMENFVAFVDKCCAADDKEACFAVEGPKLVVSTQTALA
T9 sequence (Q13148 other isoform, or with tags, fused parts or gaps limits assumed): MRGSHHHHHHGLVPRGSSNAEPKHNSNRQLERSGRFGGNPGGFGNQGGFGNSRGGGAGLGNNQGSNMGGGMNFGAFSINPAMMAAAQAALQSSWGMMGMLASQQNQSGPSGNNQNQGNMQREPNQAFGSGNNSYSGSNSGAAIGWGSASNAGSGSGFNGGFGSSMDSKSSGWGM
T8 sequence (Q13148 whole entry): as the sequence (Q13148 whole entry) above

B1: NI-205.21G1 (antibody, human IgG1, V domains shown)
VH: QVQLVESGGGVVQPGMSLRLSCAASGFSFSSHGMHWVRQTPGKGLEWLAVISYDASNKSYADSVKGRFTISRDNSKKTLYLQMDSLRVEDTALYYCANAFSSSASGGYWGQGTLVTVSS
VL: DVVMTQSPLSLPVTLGQPASISCRSSQSLVHSDGVTYLNWFQQRPGQSPRRLIYKVSNRDSGVPDRFSGSGSGTDFTLEISRVEAEDVGIYYCMQGTHWPPWTFGQGTKVEIK
notes: Human-derived; also called NI-21G1
The EC50 is the concentration giving half of the maximal effect. Turning to B1, the binding result is “no binding (tested: about 4x10^5 pM)” with BSA, “no binding (tested: 10 nM)” in assay [2], “no binding (tested: 10 nM)” in [3] and “no binding (tested: 10 nM)” in [4]. Also, the 50% effective concentration (EC50) stood at 4.1 nM in assay [1], 4.4 nM in [5], 0.33 nM in assay [6] and 4.1 nM in assay [7].

B2: NI-205.58E11 (antibody, human IgG1, V domains shown)
VH: EVQLLESGGGLVQPGGSLRLSCAASGFTFSSYSMSWVRQAPGKGLEWVATVGYGGTIYYADSVKGRFTISRDNSKNTLYLEMNSLRAEATAVYYCAKANYGGNRFGLDVWGQGTTVTVSS
VL: QSALTQPPSASGSPGQSVTISCTGTSSDVGGYNYVSWYQHQPGKAPKLMIYEVSKRPSGVPDRFSGSKSGNTASLTVSGLQAEDEADYYCSSYAGSNNLGVFGTGTEVTVL
notes: Human-derived
Turning to B2, the binding result in assay [8] is “no binding (tested: 50 nM)”; in [5], “no binding”; in [7], “no binding”.

B3: NI-205.44B2 (antibody, human IgG1, V domains shown)
VH: QVQLQESGPGVVKPSQTLSLTCTVSGVSVGSGDYYWSWIRHHPGKGLEWIGYISFFGSSNYNPSLKGRVSMSVDTSNNQFSLNLKSVTAADTAVYFCATGNAYSFWGQGTMVTVSS
VL: QSALTQPASVSGSPGQSITISCTGTSSDIGTHNLVSWYQQHPGKAPKLIIYEIFERPSGISSRFTGSKSGNTASLTISGLQAEDEADYFCCAYSVTVIFGGGTKLTVL
notes: Human-derived; also called NI205.44B22
For the molecule B3, the figures for the EC50 in assay [5], in assay [6] and in [7] were above 125 nM, 33.5 nM and 2.8 nM, respectively. For the same molecule, the binding result in assay [9], in assay [10] and in assay [11] was “no binding” in each case.

B4: NI-205.1A9 (antibody, human IgG1, V domains shown)
VH: QVQLVQSGSELKKPGASVKVSCKASGYTFTSYAMNWVRQAPGQGLEWMGWINTNTGNPTYAQGFTGRFVFSLDTSVSTAYLQISSLKAEDTAVYYCARDRIDGSSWSSWFDPWGQGTLVTVSS
VL: QSVLTQPPSVSGAPGQRVTISCTGSSSNIGAGYDVHWYQQLPGTAPKLLIYGNSNRPSGVPDRFSGSKSGTSASLAITGLQAEDEADYYCQSFDSSLSSSVFGGGTKLTVL
notes: Human-derived
Consider B4, for which the binding result in [12] is “binds”; in [6], “no binding”; in assay [9], “no binding”; in assay [13] it was “no binding”; in [11], “no binding”. Moreover, the EC50 is above 98 nM in assay [5] and 1 nM in assay [7].
